Results reported in the nanobody polyreactivity screen of Harvey et al. (2022).

Experiment: yeast display, Sf9 membrane polyspecificity reagent, FACS + sequencing; frameworks hold sequencing errors
Summary of the method: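 Synthetic nanobody libraries on Saccharomyces cerevisiae BJ5465 were galactose-induced for 36–48 hours, stained 1 hour at 4 °C with 10% biotinylated, detergent-solubilized Sf9 membrane reagent and enriched on streptavidin microbeads. FACS then separated cells into low and high (top ~1%) gates by anti-HA (expression) and streptavidin (reagent binding) fluorescence. Genes were colony-PCR amplified, MiSeq 2 × 250 sequenced and CDR-length filtered. A clone's polyreactivity label is that of its gate of origin.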

Sequence | polyreactivity (PSR sort gate)
QLQLQESGGGLVLAGGSLRLSCSASGNISVYGSMCWYRQAPGKEREFVATIDPGTNTNYADSVKDRFTISRDNAKNTVYLQMNSLKPEDTAVSYCAVEAGSDWPYRYRGQGTQVTVSS | low polyreactivity
QVQLVESGGGLVQAGGSLRISCAASGSIFYVYAMGWYRQAPGKERELVATISTGGSTYYADSVKGRFTISRDNAKNTVYLQMNSLKPEDTAVYYCNAQFTPRYWGGYDSWGQGTQVTVSS | low polyreactivity
QVQLVESGGGLVQAGGCLRLSCAASGSTFPRNAMGWYRQAPGKERELVATITSSGGGTYYADSVKGRFTISRDNAKNTVYLQMNILKPEDTAVYYCNADGPAGDAFDYCGQGTQVTVSS | low polyreactivity
QVQLVDSGGGLVQAGGSLRLSCAASGFTFYRYAMGWYRQAPGKERELVAAITGRAGRTYYADSVKGRFTISRDNAKNTVYLQMNSLKPEDTAVYYCSGYRYYGGYGYWGQGTQVTVSS | high polyreactivity
QVQLVESGGGLVQAGGSHRLSCAASGFTFTHYPMGWYRQAPGKERELVAAISTSGGSTYYADSVKGRFTISRDNAKNSVYLQMNSLKPEDTAVYYCAARRDGWVQWGYYYWGQGTQVTVSS | low polyreactivity
QVQLVESGGGLVQAGVSLRLSCAASGSTFVSNAMGWYRQAPGKERELVAAISWSGVRTYYADSVKGRITISRDNAKNTVYLQMNSLKPEDTAVYYCSKRIYGSRSSRFNYWGQGTQLTVSS | high polyreactivity
QVQLVESGGGLVQAGGSLRLSCAASGFIFASYTMGRTRQAPGKERELVAAISRAGSTYYADSVKGRFTISRDNAKNTVYLQMNSLKPEDTAVYYCNAVSWRTSRYDYWGQGTQVTVSS | high polyreactivity
QVQLVESGGGLVQARGSLRLSCAASGITFRYYAMGWYRQAPGKERELVASISWSGGSTYYADSVKGRFTISRDNAKNTVYLQMNSLKPEDTAVYYCAADILTFWYRYYYWGQGTQVTVSS | high polyreactivity
QVQLVESGGGLVQAGGSLRLSCAASGSTFGYYAMGWYRQAPGKERELVAAITASGGGTYYADSVKGRFTISRDNAKNTFYLQMNSLKPEDTEVYYCNRGYDYWGQGTHVTVSS | low polyreactivity
QVQLVESGGGLVQAGGSLRLSCAASGRTFYYYAMGWYRQAPGKEREFVASITWRGGRTYYADSVKGRFTISRDNAKNTVYLQMNSLKPEDTAVYYCAAESYHPEYYYWGQGTQVTVSS | high polyreactivity
QVQLVESGGGLVQAGGSLRLSCAASGRTFGFYAMGWYRQAPGKEREFVAAIYKSGGSTYYADSVKGRFTISRDIANNTVYLQMISLKPEDTAVYYCIKKVGSYYRSYYYWGQGTQVTVSS | high polyreactivity
QVQLVESGGGLVQAGGSLRLSCAASGTIFQQYAMGWYRQAPGKERELVAAISYSGGTTYYADSVKGRFTISRDNAKNTDYLEMNSLKPEDTAVYYCAAYYPSGSYDYYWGQGTQVTVSS | low polyreactivity
QVQLVESGGGLVQAGGSLRLSCAASGRTFQYYAMGWYRQAPGKERVLVAAITSSGGSTYYADSVKGRFTISRHNAKNTVYLQMNSLKPEDTAVYYCAAEDGLQGNYNYGYDYWGQGTQVTVSS | low polyreactivity
QVQLVESGGGLVQAGGSLRLSCAASGRTFRANAMGWYRQAPGKERDLVAAITWDGGSTYYADSVKGRFTISRDNAKNTVYLQMNSLKPEDTAVYYCNTDPYLWGQGTQVTVSS | low polyreactivity
QVQLVESGGGLVQAGGSLRLSCAASGRIFWYYAMGWYRQAPGKERELVDAISVDGGSTYDADSVKGRFTISRDNAKNTVYLQMNSLKPEDTAIYYCAAQKYPGFTHGYWGQGTQVTVSS | low polyreactivity
QVQLVESGGGLVQAGGSLRLSCAASGFTFSDNAMGWDRQAPGKERELVATISQSSGSTSYADSVKGRFTISRDYAKNTVYLQLNSLKPEDTAVYSCANRRLFYWGKGTQVTVSS | low polyreactivity
QVQLVESGGGLVQAGGSLRLSCAASGLIFPYYAMGWYRQAPGKERELVAAISRSGDSTYYADSVKGRFTISRDNAKITVYLQMNSLKPEDTAFYYCAAVLSYSYVRYNYWGQGTQVNVSS | high polyreactivity
QVQLVESGGGLVQAGGSLRLSCAASGSTFSVYALGWYRPAPGKERELVAVISSTDDSTYYADSVKGRFTISRDNAKNTVYLQMNSLKPEDTAVYYCAAPDDTTGYDYYYWGQGTQVTVSS | low polyreactivity
QVQLVESGGGLVQAGGSLRLSCAASGFTFGRYAMGWYRQAPGKERELVAAISWSGTRTYYADSVKGRFTISRDNAKNTVYLQLNSLKPEDTADYYCAAYPPPWAQTGFYTYDYWGQGTQVTVSS | high polyreactivity
QVQLVESGGGLVQAGGSLRLSCAASGSIFPRNAMGWYRQAPGKERELVAAITTTGGITHYADSVKGRFTISRDNAKNTVYLQMNSLKPEDTAVYYCAASNEVPWRFPDDYWGQGTQVTVSA | low polyreactivity
QVQLVESGGRLVQAGGSLRLSCAASGRTIGYYAMGWSRQAPGNEWELVAAISGSGGSTYYADSVKGRFTISRDNAKNTVYLQMNSLKPEDTAVYYCAATTQSRRYEYYYWGQGTQVTVSS | high polyreactivity

Sequence | polyreactivity (PSR sort gate)
QVQLGESGGGLVQAGGSLRLSCAASGSIFIGNAMGWYRQAPGKERELVAAITGRGGRTYYADSVKGRFTISRDNAKNTVYLQMNSLKTEDTAVYYCNAVARQFLYGYWGEGTQVTVSS | high polyreactivity
QVQLVESGGGLVQAGGSLRLSCAASGRTFRYNAMGWYRQAPGKERELVAAITQSGGSTYYADSVKGRFTISRDNAKNTVYLQMNSLKPEDTAVYYCAKVRERINYDYWGQGTQVTVSS | low polyreactivity
QVQLVESGGGLVQAGGSLRLSCAASGIIFVGNAMGWYRQAPGKERELVASINSGGSTYYADSVKGRFTISRDNAKNTVYLPMNSLKPEDTAVYYCAVEEARYYYDDYDYWGQGTQVTVSS | low polyreactivity
QVQLVESGGGLVQAGGSLRLSCAASGRILGDNVMGWYRQAPGKERELVAAISSGSGSTYYADSVKGRFTISRDNAKNTVYLQMNSLKPEDTAVYYCAAGPYIYPRYDYWGQGTQVTVSS | low polyreactivity
QVQLVESGGGLVQAGGSLRLSCAASGFIFFRNAMGWYRQAPGKERELVAAISSNGGRTYYADSVKGRFTISRDNAKNTVYLQMNSLTPEDTAVYYCAAANPGSEYDYWGQGTQVNVSS | high polyreactivity
QVQLVESGGGLVQAGGSLRLSCAASGLTFDAYAMGWSRPAPGKERELVAAISWSGGSTYYAASVKGRFTISRDNAKNTVYLQMNSLKPEDTAVYYCNARYAQFRYWGQGTQVTVSS | high polyreactivity
QVHLVESGGGLVQAGGSLRLSCAASGRTFYSYTMAWYRQAPGKERELVAAINRGGSTYYADSVKGRFTISRDKAKNTVYLQMNSLKEEDTAVYYFAVGYAHSSNRRYYYQKTHGYWGQGTQVTVSS | low polyreactivity
QVQLVESGGGLVHAGGSLRLSCAASGRIFGVYAMGWYRQAPGKERELVAAISEGGGSTNYADSVKGRFTISRDNAKNTVYLQMNSLKPEDTAVYYCAATYRTGVRRYYSWGQGTQVTVSS | low polyreactivity
QVQLVESGGGLVQAGGSLRLSCAASGSIFTLYAMGWYRQAPGKEREFVAGISFSTGRTYYADSVKGRFTISRDNAKNTVYLQMNSLKPEDTAVYYCAAYVSHYWYGVYRDGYWGQGTQVTVSS | low polyreactivity
QVQLVESGGRLVQAGGSLRLSCAASGSTSTLYAMGWYRQAPGKERELVAAISKSGGRTYYADSVKGRFTISRDNAKNTVYLQMNSLKPEDTAVYYCNTVPGRYRTFDYWGQGTQVTVSS | high polyreactivity
QVQLVESGGGLVQAGGSLRLSCAASGYTFYSNAMGWYRQAPGKETELVASIRSRGRSTYYADSVKGRFTISRDNAKNTVYLQMNSLKPEDTAVYYCAALPNKPAVYAYDYWGQGTQVTVSS | low polyreactivity
QVQLVESGGGLVQAGGSLRLSCAAAGRTFFKYAMGWYRQAPGKERELVATITSSGGITYADSVKGRFTISRDNAKNTVYLQMNRLKPEDTAVYYCNARVWVTHYSELNYWVQGTQVTVSS | low polyreactivity
QVQLVESGGGLVQAGGSLRLSCAASGRTFSQYAMGWYRQAPGKERELVAAISWSGDSTYYADSVKGRFTISRDNAKNTVYLQMNSLKPEDTAVYDCAADRRVETPRYDYWGQGTQVTVSS | low polyreactivity
QVQLVESGGGLVQAGGSLRLSCAASGSTFNGYVMGWYRQAPGKERELVAAISRSGGSTYYADSVKGRFTISRDNAKNTVYLQMYSLKPEDTAVYYCAKGGYQHYWGQGTQVTVSS | high polyreactivity
QVQLVESGGGLVQAGGSLRLSCAASGYTFGFYGMGWYRQAPGKERDLVAAISRSGGGSTYYADSVKGRFTISRDNAKNTVYLQMNSLKPEDTAVYYCNRDFDDEMWGQGTQVTVSS | low polyreactivity
QLQLVESGGGLVQAGGSLRLSCAASGFIFYYNVMGWYRQAPGKERELVAAIRYRGTITYYADSVKGRFTISRDIAKNTVYLQMNSLKPEDTAVYYCARRQRNYYRSSPGGDYWGQGTQVTVSS | low polyreactivity
QVQLVESGGGLDQAGGSIRLSCAASGGTFKANAMGWYRQAPGKEREVVAAIRQTGGSTYYADSVKGRFTISRDNEKNTVYLQMNSLKPEDTAVYYCAAQSHRYWIYDYWGQCTQVTVSS | high polyreactivity
QVQLVESGGGLVQAGGSLRLICAASGSIFRRYAMGWYRQAPGKERELVARITIRGGSTYYADSVKGRFTISRDNAKNTVYLQMNSLKPEDTAVYYCNTVVPASSGGAYRRYYYLGQGTQVTVSS | high polyreactivity
QVQLVESGGGLVQAGGSLSLSCAASGRIFAYYAMGWYRQAPGKERELVAAISGGGGSTYYADSVKGRFTISRDNAKNTVYLQMNSLKPEDTAVYYCAARYTVYSATGRYYYWGQGTQVTVSS | high polyreactivity
QVQLVESGGGLVQAGGSLRLSCAASGITFVKYAMGWYRQAPGKERELVAAISGSGGSTSYADSVKGRFTISRDNAKNTVYLQMNSLKPEDTAVYYCNKAIVRYPKTRDYWGQGTQVTVSS | low polyreactivity
